The results in this text go back to doi:10.1101/2025.06.13.659497.

This assay addresses biotinylated recombinant bovine serum albumin with N-terminal Avi tag (rBSA-Bt) (Bos taurus). The experiment in a line: SPR.

Sequence of streptavidin (P22629 25-183): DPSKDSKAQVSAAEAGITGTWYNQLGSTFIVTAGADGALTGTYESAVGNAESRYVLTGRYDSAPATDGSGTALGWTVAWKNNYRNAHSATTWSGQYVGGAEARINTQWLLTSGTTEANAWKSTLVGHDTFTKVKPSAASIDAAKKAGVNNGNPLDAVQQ

On to “streptavidin (from UniProt P22629 25-183) (natural protein)”, for which the surface density came to 28 ng/cm^2.
